Data as given in patent US20040171105A1 (published 2004).
Each block holds one binder with its values, some of them ahead of it.

How the values were obtained:
[1] = molecular target: T1, GST fusion form of full-length human cIAP1 (human, UniProt Q13490 1-618); test: GST pulldown on Glutathione Sepharose beads, Western blot (anti-GST, anti-Penta-His)
T1 construct: Full-length cIAP1 fused to GST, expressed in E. coli BL21(DE3); also called GST-cIAP1; full-length cIAP1 (GST-fused); not shown: N-terminal glutathione S-transferase of pGEX-4T-2 with thrombin cleavage site
T1 sequence (Q13490 whole entry, the tested form may be a part): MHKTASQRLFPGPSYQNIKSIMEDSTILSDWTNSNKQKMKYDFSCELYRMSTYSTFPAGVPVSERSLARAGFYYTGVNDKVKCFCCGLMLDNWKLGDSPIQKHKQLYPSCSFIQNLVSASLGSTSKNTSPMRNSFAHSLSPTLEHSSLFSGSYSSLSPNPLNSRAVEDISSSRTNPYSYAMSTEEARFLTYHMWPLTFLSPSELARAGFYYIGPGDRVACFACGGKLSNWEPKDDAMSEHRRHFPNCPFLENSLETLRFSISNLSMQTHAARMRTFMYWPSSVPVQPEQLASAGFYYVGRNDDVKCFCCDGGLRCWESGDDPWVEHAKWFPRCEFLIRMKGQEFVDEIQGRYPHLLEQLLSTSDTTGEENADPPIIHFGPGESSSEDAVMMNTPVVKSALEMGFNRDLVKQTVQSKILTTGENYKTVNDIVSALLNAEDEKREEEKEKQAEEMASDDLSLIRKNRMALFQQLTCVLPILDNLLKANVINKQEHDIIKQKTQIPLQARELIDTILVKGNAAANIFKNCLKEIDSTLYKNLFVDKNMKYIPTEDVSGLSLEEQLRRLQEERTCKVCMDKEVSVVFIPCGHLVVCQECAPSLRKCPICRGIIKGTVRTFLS
Description: To examine whether the differential in catalytic efficiency between Omi WT and OmiΔ8 was due to different binding affinities to IAPs, a GST-based pulldown assay was used to monitor the IAP binding affinities of Omi WT and OmiΔ8. Full-length cIAP1 (50 nM) was incubated with 100 nM of Omi WT and Omi mutants for 20 minutes at 4° C. in 50 μl of PBST. The samples were then incubated with 20 μl of Glutathione Sepharose beads (Amersham Biosciences, Piscataway, N.J.) for 30 minutes at 4° C. The beads were precipitated by centrifugation and washed briefly with 1.4 ml×3 of PBST. The proteins bound to the beads and left in the supernatant were separately mixed with SDS sample loading buffer and resolved by SDS-PAGE, then transferred to a nitrocellulose filter. The upper part of the filter was probed with an antibody against GST and the lower part with an antibody against Penta-His.

[2] = molecular target: T1, GST fusion form of full-length human …; test: cell-based or functional assay
[3] = molecular target: T2, Omi WT (wild-type mature Omi/HtrA2, C-terminal hexa-His tagged, recombinant from E. coli) (Homo sapiens (humans), UniProt O43464 134-458); test: immunoprecipitation assay (data not shown)
T2 construct: Any N-terminal Met from Nde I cloning is not discussed for the bacterial protein; also called wild-type Omi; PRSS25
T2 sequence: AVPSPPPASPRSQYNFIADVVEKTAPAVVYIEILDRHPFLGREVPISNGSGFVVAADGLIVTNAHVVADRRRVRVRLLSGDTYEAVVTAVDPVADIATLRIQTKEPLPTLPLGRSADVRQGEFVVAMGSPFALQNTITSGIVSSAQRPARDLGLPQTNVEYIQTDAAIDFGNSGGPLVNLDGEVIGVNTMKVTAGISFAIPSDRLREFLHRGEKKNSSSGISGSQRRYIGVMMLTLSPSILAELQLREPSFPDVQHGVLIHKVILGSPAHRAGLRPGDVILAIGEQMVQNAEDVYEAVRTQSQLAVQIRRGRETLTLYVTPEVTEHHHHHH

B1: OmiΔ8 (Omi without the AVPS tetrapeptide, C-terminal hexa-His tagged) (enzyme)
chain: PPPASPRSQYNFIADVVEKTAPAVVYIEILDRHPFLGREVPISNGSGFVVAADGLIVTNAHVVADRRRVRVRLLSGDTYEAVVTAVDPVADIATLRIQTKEPLPTLPLGRSADVRQGEFVVAMGSPFALQNTITSGIVSSAQRPARDLGLPQTNVEYIQTDAAIDFGNSGGPLVNLDGEVIGVNTMKVTAGISFAIPSDRLREFLHRGEKKNSSSGISGSQRRYIGVMMLTLSPSILAELQLREPSFPDVQHGVLIHKVILGSPAHRAGLRPGDVILAIGEQMVQNAEDVYEAVRTQSQLAVQIRRGRETLTLYVTPEVTEHHHHHH
notes: The name Δ8 may mean that 8 residues were deleted in the tested construct; also called Omi?8; OmiΔAVPS
- binding result [1]: no binding (tested: 100 nM Omi mutant with 50 nM cIAP1)

- relief of cIAP1 inhibition of caspase activity in HeLa extracts [2]: 200 nM
- binding result [3]: no binding
B2: Smac (purified recombinant) (other, UniProt Q9NR28 56-239, looked up)
chain: AVPIAQKSEPHSLSSEALMRRAVSLVTDSTSTFLSQTTYALIEAITEYTKAVYTLTSLYRQYTSLLGKMNSEEEDEVWQVIIGARAEMTSKHQEYLKLETTWMTAVGLSEMAAEAAYQTGADQASITARNHIQLVKLQVEEVHQLSRKAETKLAEAQIEELRQKTQEEGEERAESEQEAYLRED
notes: The construct is not described; also called Smac/DIABLO
